Measurements as given in patent US8722052B2, “Vaccinia virus protein A46 peptide and use thereof” (priority 2008, dated 2014).

What was measured:
TLR9 = biological target: T1, TLR9 (Mus musculus, UniProt Q9EQU3); assay: CpG-induced TNFα in RAW264.7 cells, ELISA; format: cell-based, murine; conditions: peptide 5 or 20 μM 1 h before CpG, supernatant 24 h
T1 construct: using the murine macrophage cell line RAW264.7; endogenous in cells; host or cells: RAW264.7
T1 sequence (Q9EQU3 26-1032): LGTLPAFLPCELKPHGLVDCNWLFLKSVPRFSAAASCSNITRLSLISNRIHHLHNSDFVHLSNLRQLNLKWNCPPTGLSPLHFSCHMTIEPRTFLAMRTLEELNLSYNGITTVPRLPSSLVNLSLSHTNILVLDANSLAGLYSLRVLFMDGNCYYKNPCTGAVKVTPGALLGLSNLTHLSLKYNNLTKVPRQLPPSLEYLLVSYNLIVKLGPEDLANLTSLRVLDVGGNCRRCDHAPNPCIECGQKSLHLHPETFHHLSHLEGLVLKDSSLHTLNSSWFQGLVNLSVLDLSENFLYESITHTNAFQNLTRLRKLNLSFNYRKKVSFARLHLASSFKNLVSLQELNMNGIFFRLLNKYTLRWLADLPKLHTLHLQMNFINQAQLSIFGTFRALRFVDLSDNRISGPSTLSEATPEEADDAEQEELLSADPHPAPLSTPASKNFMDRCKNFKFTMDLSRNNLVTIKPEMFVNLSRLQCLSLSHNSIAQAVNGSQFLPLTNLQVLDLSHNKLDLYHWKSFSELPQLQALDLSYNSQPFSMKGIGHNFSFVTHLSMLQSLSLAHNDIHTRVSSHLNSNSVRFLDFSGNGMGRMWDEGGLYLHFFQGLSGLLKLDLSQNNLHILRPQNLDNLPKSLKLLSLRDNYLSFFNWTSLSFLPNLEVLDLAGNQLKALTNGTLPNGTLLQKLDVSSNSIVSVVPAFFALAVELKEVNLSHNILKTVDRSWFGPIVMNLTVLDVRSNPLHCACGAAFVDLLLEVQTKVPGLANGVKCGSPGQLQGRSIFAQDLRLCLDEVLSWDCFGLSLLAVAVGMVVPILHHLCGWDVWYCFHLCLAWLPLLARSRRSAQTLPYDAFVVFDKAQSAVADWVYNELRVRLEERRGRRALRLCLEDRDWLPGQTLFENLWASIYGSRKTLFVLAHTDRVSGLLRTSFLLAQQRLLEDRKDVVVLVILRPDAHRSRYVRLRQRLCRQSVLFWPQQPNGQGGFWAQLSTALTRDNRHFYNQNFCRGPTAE
Description: FIGS. 2A and B are bar charts showing the effect of peptides derived from A46 on CpG-induced TNFα in murine RAW264.7 cells. A46 peptides were added to the cells at a concentration of 5 or 20 μM 1 hour before stimulating with […] CpG. Supernatants were collected 24 hours after stimulation and assayed for TNFα by ELISA. No peptides were added into the control wells (black bars). (A) peptides A461-A467 (SEQ ID NO. 17 to 23). (B) peptides A468-A4614 (SEQ ID NO. 24 to 30) (excluding A4612 SEQ ID NO. 28). Data is representative of at least two experiments each performed in triplicate and is expressed as mean±s.d;
Cytokine and chemokine production from cells or mouse serum was measured by ELISA using Duoset kits from R&D systems, according to the manufacturer's instructions.
These peptides were initially screened for effects on TLR-induced gene induction in vitro using the murine macrophage cell line RAW264.7. Unmethylated CpG dinucleotides of bacterial DNA sequences are detected by TLR9, which leads to production of pro-inflammatory cytokines and chemokines, including TNFα via a MyD88-dependent pathway (Latz et al, 2004). […] The effect of the peptides on two TLR9-induced cytokines, namely TNFα and MIP-2, was measured by ELISA. TNFα is NFκB-dependent, and MIP-2 as well as NFκB also requires IRFs for transcriptional activation (De Filippo et al, 2008). […]

TLR2 = biological target: T2, TLR2 (Mus musculus, UniProt Q9QUN7); assay: TLR2 response in murine cells; format: cell-based
T2 construct: endogenous in cells
T2 sequence (Q9QUN7 25-784): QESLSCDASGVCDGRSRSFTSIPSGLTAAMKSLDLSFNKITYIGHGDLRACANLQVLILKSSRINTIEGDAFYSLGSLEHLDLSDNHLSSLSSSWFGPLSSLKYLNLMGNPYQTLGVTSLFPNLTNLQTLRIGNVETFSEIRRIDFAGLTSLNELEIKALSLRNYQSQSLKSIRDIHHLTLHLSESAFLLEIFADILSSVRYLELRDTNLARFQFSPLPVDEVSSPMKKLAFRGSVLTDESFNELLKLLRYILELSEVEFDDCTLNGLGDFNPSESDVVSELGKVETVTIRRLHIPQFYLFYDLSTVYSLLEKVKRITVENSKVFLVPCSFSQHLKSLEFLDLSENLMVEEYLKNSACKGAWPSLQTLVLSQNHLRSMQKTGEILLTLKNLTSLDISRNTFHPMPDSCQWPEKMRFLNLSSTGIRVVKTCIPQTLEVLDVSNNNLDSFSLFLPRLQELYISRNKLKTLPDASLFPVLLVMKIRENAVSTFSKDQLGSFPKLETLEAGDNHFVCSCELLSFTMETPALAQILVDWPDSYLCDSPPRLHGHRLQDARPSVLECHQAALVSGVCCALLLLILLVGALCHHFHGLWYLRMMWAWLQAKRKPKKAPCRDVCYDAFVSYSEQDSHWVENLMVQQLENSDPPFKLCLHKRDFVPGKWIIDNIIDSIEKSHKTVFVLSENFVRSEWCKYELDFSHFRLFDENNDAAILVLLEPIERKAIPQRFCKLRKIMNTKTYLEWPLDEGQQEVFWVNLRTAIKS

Sequence: KYSFKLILAEYRRRRRRRRR [Peptide A464]
- inhibition of CpG-induced TNFα production (TLR9): little or no effect
- effect on TLR2 in murine cells (TLR2): unaffected
